Measured values published in article PMC3357558.

What was measured:
[1] = biological target: ITK-BTK((SH3)): ITK whose SH3 domain is replaced with the SH3 domain of BTK, fluorescent protein chimera (UniProt P35991); assay: co-IP; Jurkat (JTag) cells transfected with GFP-ITK constructs, stimulated or not with 5 ug/mL anti-CD3e OKT3 cross-linked with rabbit anti-mouse IgG for 1 minute at 37°C, lysed; FP-ITK immunoprecipitated with anti-GFP IgG; SLP-76 and ITK immunoblotted; association index by densitometry against the nonstimulated lane
UniProt P35991, sequence (P35991 whole entry, stated change not applied, the tested form may be a part): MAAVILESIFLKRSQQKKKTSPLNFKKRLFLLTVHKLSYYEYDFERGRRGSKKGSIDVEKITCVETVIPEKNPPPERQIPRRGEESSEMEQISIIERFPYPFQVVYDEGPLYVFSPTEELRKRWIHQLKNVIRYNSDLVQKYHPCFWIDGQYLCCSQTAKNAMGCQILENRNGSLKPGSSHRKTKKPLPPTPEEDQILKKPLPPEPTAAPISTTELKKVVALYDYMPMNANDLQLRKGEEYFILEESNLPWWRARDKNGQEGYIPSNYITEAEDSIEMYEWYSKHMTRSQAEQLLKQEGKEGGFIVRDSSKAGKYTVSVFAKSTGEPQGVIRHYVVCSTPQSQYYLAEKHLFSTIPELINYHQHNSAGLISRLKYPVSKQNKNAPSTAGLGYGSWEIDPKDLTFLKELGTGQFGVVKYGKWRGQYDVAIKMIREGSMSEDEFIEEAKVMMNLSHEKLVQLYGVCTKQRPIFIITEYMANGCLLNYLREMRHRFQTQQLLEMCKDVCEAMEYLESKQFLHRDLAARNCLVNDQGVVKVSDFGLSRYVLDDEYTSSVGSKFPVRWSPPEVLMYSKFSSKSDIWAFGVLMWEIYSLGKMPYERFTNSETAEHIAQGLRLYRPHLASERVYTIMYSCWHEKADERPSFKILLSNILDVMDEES

[2] = biological target: ITK-BTK((SH3)): ITK whose SH3 domain is replaced with the SH3 domain of BTK, fluorescent protein chimera (UniProt P35991)

B1: SLP-76 (natural protein)
chain: MALRNVPFRSEVLGWDPDSLADYFKKLNYKDCEKAVKKYHIDGARFLNLTENDIQKFPKLRVPILSKLSQEINKNEERRSIFTRKPQVPRFPEETESHEEDNGGWSSFEEDDYESPNDDQDGEDDGDYESPNEEEEAPVEDDADYEPPPSNDEEALQNSILPAKPFPNSNSMYIDRPPSGKTPQQPPVPPQRPMAALPPPPAGRNHSPLPPPQTNHEEPSRSRNHKTAKLPAPSIDRSTKPPLDRSLAPFDREPFTLGKKPPFSDKPSIPAGRSLGEHLPKIQKPPLPPTTERHERSSPLPGKKPPVPKHGWGPDRRENDEDDVHQRPLPQPALLPMSSNTFPSRSTKPSPMNPLPSSHMPGAFSESNSSFPQSASLPPYFSQGPSNRPPIRAEGRNFPLPLPNKPRPPSPAEEENSLNEEWYVSYITRPEAEAALRKINQDGTFLVRDSSKKTTTNPYVLMVLYKDKVYNIQIRYQKESQVYLLGTGLRGKEDFLSVSDIIDYFRKMPLLLIDGKNRGSRYQCTLTHAAGYP
reduction of the ITK-SLP-76 association against wild-type ITK [1]: 32% | TCR-induced tyrosine phosphorylation of ITK-BTK(SH3) in transfected Jurkat cells (anti-ITK IP, antiphosphotyrosine blot), reduction in signal intensity against wild type ITK [2]: 15%
